Assay results reported in article PMC5518211 (Journal of Molecular Recognition, 2017).
Like-named read-outs stand apart in the source and are kept apart here. Ends that are not written are not given here.

Legend:
Experiment in all cases: SPR
[1] = target: T1, Calmodulin ( (human brain CaM or …, UniProt P0DP23 1-149))
[2] = target: T1, Calmodulin; remark: listed apart in the source
[3] = target: T1, Calmodulin; remark: listed apart in the source
[4] = target: T1, Calmodulin; remark: listed apart in the source

Row | Kd [1] [nM] | koff [1] [s⁻¹] | kon [1] [M⁻¹ s⁻¹] | Kd [2] [nM] | koff [3] [s⁻¹] | kon [3] [M⁻¹ s⁻¹] | Kd [4] [nM] | Binder
1 | 480 | 0.16 | 340000 | 19000 | – | – | – | Full-length recombinant human neurogranin with a His-tag at the N-terminus (natural protein) MDCCTENACSKPDDDILDIPLDDPGANAAAAKIQASFRGHMARKKIKSGERGRKGPGPGGPGGAGVARGGAGGGPSGD
2 | – | – | – | – | ~1 | ~1e+09 | 7.1 | LKKFNARRKLKGAILTTMLA (not fully specified) [Peptide corresponding to the CaM-binding region of CaMKIIα (CaMKII 290-309)]
